System: MS2 coat protein
Test: apparent KD of MS2 coat protein; designed switch direction (-1 OFF switch, 1 ON switch): -1; higher = weaker reporter binding
In short: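 Transcription of designed RNA switches on Illumina chips was done by stalled E. coli RNA polymerase. SNAP-549-labelled MS2 coat protein was then titrated in doubling steps from 0.7 or 1.5 nM to 3 µM, with steps of 0.8–1.5 h at the lowest and 10–20 min at the highest concentration. The per-design median over clusters of curve-fitted normalised fluorescence is reported as apparent KD.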

[1] = input ligand: microRNA oligo, concentration not stated

ACAUAUGUUAGAGGAUCCUACAUGAGGAUCACCCAUGUCGGUAUAAAACUCACACGGUCAACGCUUUUUGUUCGCUA [Eternabot (L1) Solution 2] (Eterna round: R97, puzzle: Sensor, turn-off variant 1)
apparent KD of MS2 coat protein (input ligand: FMN 200 uM): 30.5 nM
apparent KD of MS2 coat protein (input ligand: none): 34.7 nM

ACAUGACAUGAGGAUCACCCAUGUUAGGAUAUCCCUCGUCCUGACUGAACGUCGGAAUGGAGAAGGAGCAUGGC [Eternabot (L2) Solution 88] (Eterna round: R97, puzzle: Exclusion 1)
apparent KD of MS2 coat protein (input ligand: FMN 200 uM): 47.1 nM
apparent KD of MS2 coat protein (input ligand: none): 45.8 nM

ACAUGAGGAUCACCCAUGUAAACAUAAUGGCUCAUGUAGAGUCAGGAUAUGCGUGGCGAACAAGCGCAGAAGGGACAAGACUGG [Deportation 25 - Jieux - Exclusion NG 3] (Eterna round: R96, puzzle: Exclusion NG 3)
apparent KD of MS2 coat protein (input ligand: FMN 200 uM): 30 nM
apparent KD of MS2 coat protein [1]: 19.6 nM
apparent KD of MS2 coat protein (input ligand: none): 27.2 nM

ACAUGAGGAUCACCCAUGUAAACAUAAUGGCUCAUGUAGAGUCAGGAUAUGCGUGGCGAACAAUCGCAGAAGGGACAAGACUGG [Deportation 28 - Jieux - Exclusion NG 3] (Eterna round: R96, puzzle: Exclusion NG 3)
apparent KD of MS2 coat protein (input ligand: FMN 200 uM): 29.2 nM
apparent KD of MS2 coat protein [1]: 19.9 nM
apparent KD of MS2 coat protein (input ligand: none): 27.8 nM

ACAUGAGGAUCACCCAUGUAAACAUGAUGGCUGAUGUAGAGCUAGGAUAUGAGUGACUAUCUAUCUCAGAAGGAGCUUGACUGG [Deportation 45 - Jieux - Exclusion NG 3] (Eterna round: R96, puzzle: Exclusion NG 3)
apparent KD of MS2 coat protein (input ligand: FMN 200 uM): 26 nM
apparent KD of MS2 coat protein [1]: 27.1 nM
apparent KD of MS2 coat protein (input ligand: none): 31.4 nM

ACAUGAGGAUCACCCAUGUAAUCAUAAUGGCUGAUGUAGAGUCAGGAUAUGUGUGGCUAACAAUCGCAGAAGGGACAAGACUGG [Deportation 32 - Jieux - Exclusion NG 3] (Eterna round: R96, puzzle: Exclusion NG 3)
apparent KD of MS2 coat protein (input ligand: FMN 200 uM): 31.4 nM
apparent KD of MS2 coat protein [1]: 21.6 nM
apparent KD of MS2 coat protein (input ligand: none): 29.5 nM

ACAUGAGGAUCACCCAUGUAAUCAUGAUGGCUGAUGUAGAGCUAGGAUAUGAGUGGCUUUCUAUCUCAGAAGGAGCUUGACUGG [Deportation 42 - Jieux - Exclusion NG 3] (Eterna round: R96, puzzle: Exclusion NG 3)
apparent KD of MS2 coat protein (input ligand: FMN 200 uM): 28.9 nM
apparent KD of MS2 coat protein [1]: 25.5 nM
apparent KD of MS2 coat protein (input ligand: none): 37.2 nM

ACAUGAGGAUCACCCAUGUAAUGAAGGGUACUAUACUAAACGUAGGAUAUCGAUGUAAGAUUGAACGAGAAGGACGAUUGCCUU [JR_ExcNG3_Sub050] (Eterna round: R96, puzzle: Exclusion NG 3)
apparent KD of MS2 coat protein (input ligand: FMN 200 uM): 55.9 nM
apparent KD of MS2 coat protein [1]: 42 nM
apparent KD of MS2 coat protein (input ligand: none): 72.8 nM

ACAUGAGGAUCACCCAUGUAAUGAUGGGUACUAUAUUAUUCGUAGGAUAUCGUUGUUAGUUUGUGCGAGAAGGACGAUUGCUUU [JR_ExcNG3_Sub057] (Eterna round: R96, puzzle: Exclusion NG 3)
apparent KD of MS2 coat protein [1]: 733 nM

ACAUGAGGAUCACCCAUGUACACGUAAUGGCUCAUGUAGAGUCAGGAUAUGCGUGGCGAACUCGCGCAGAAGGGACAAGACUGG [Deportation 21 - Jieux - Exclusion NG 3] (Eterna round: R96, puzzle: Exclusion NG 3)
apparent KD of MS2 coat protein (input ligand: FMN 200 uM): 27.1 nM
apparent KD of MS2 coat protein [1]: 18.6 nM
apparent KD of MS2 coat protein (input ligand: none): 23 nM

ACAUGAGGAUCACCCAUGUACACGUAAUGGCUCAUGUAGAGUGAGGAUAUGUGUGACGAACGAGCACAGAAGGCACAAGACUGG [Deportation 12 - Jieux - Exclusion NG 3] (Eterna round: R96, puzzle: Exclusion NG 3)
apparent KD of MS2 coat protein (input ligand: FMN 200 uM): 51.8 nM
apparent KD of MS2 coat protein [1]: 39.8 nM
apparent KD of MS2 coat protein (input ligand: none): 40.2 nM

ACAUGAGGAUCACCCAUGUACAGGGUUUAGUUUCAUUGUUUGAAGGAUAUACUUAGUUAGUUGUUGUAGAAGGUCAUAUUUUAU [JR_ExcNG3_Sub002] (Eterna round: R96, puzzle: Exclusion NG 3)
apparent KD of MS2 coat protein [1]: 156 nM

Source: the supplement of paper PMC9170038
